The results in this text go back to IntAct's records for PubMed 22939626.

The assay deals with vira_shifl virA (UniProt Q7BU69).
vira_shifl virA, sequence (Q7BU69 whole entry): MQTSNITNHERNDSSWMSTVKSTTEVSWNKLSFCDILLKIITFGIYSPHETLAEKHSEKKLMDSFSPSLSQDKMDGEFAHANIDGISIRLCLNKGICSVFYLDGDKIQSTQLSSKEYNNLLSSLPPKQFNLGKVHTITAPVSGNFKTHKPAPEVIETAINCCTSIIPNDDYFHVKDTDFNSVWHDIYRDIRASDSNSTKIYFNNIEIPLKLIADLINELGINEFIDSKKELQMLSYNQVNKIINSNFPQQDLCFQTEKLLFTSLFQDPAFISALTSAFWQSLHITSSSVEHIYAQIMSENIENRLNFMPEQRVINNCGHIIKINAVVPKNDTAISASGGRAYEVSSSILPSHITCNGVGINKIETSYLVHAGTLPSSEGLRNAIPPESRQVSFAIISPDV

Ras-related protein Rab-1A (Homo sapiens), P62820 S25N, sequence (P62820 whole entry S25N): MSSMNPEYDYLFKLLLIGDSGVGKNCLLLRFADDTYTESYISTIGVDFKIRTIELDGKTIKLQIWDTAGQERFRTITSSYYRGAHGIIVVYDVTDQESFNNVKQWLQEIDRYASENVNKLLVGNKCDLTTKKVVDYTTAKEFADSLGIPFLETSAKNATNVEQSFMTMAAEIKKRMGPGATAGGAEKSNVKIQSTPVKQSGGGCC
Ras-related protein Rab-1A (Homo sapiens), P62820 Q70L, sequence (P62820 whole entry Q70L): as the sequence (P62820 whole entry S25N) above, with N25S, Q70L counted along it

For the substance “Ras-related protein Rab-1A (Homo sapiens), P62820 S25N”, the “effect of a mutation on the interaction” value is “decreasing interaction strength”.
For “Ras-related protein Rab-1A (Homo sapiens), P62820 Q70L” the value was “increasing interaction strength”.
